Measured values taken from patent publication US20240383984A1 (Genentech, published 2024).

T1: human FcRH5 protein fragment (soluble) (human, UniProt Q96RD9 16-851)
T1 construct: whole entry named; also called soluble human FcRH5; Human FcRH5 (BIACORE analyte)
T1 sequence: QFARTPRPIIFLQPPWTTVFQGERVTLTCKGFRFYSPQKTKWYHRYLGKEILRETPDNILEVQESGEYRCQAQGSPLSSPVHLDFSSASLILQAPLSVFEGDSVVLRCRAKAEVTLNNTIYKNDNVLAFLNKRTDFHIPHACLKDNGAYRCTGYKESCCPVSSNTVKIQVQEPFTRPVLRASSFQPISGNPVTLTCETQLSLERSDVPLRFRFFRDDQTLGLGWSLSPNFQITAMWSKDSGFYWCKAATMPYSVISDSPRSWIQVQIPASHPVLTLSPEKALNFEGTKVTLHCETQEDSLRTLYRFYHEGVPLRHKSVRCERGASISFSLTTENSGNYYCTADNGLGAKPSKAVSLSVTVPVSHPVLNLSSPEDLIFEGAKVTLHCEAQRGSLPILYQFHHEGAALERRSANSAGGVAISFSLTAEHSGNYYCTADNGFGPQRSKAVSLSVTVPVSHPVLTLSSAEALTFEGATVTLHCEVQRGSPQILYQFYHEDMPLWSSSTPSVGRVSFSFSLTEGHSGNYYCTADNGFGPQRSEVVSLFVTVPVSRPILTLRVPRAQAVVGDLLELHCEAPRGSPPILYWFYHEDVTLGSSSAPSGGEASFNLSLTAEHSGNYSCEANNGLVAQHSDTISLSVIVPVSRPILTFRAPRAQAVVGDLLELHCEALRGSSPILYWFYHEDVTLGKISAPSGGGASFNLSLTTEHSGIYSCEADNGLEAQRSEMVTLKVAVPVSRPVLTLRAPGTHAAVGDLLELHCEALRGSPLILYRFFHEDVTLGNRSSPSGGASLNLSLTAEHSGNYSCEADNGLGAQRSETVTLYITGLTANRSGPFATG

T2: cynomolgus FcRH5 protein fragment (soluble) (cynomolgus monkey)
T2 construct: whole entry named; also called Cyno FcRH5 (BIACORE analyte)
T2 chain: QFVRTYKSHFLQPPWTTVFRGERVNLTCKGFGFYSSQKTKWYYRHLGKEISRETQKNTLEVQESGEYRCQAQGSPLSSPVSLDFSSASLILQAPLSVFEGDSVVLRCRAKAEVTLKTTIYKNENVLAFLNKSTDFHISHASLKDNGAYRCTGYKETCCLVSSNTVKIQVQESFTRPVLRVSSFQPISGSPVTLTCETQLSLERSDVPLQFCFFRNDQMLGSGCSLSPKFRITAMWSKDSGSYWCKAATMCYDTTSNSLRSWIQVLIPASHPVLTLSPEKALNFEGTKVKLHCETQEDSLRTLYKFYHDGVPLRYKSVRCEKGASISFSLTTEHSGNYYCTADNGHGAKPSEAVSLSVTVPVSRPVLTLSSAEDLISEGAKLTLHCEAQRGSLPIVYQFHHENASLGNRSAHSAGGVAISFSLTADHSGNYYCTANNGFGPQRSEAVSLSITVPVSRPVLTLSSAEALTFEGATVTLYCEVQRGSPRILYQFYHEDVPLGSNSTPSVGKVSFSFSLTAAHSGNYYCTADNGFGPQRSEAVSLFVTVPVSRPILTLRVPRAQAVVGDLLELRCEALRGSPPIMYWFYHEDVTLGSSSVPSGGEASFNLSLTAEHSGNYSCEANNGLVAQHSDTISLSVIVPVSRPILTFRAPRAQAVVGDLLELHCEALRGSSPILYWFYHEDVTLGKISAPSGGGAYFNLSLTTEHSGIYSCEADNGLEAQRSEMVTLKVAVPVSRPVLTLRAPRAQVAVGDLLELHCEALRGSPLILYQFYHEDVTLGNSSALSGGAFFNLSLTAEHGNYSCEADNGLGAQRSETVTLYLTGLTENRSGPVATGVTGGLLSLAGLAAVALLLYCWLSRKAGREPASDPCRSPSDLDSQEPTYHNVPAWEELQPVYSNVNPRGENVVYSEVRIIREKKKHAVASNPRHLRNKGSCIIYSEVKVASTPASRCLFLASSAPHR

T3: human FcRH4 (full-length, on SVT2 cells) (human, UniProt Q96PJ5 20-515)
T3 construct: whole, on cells; also called SVT2-FcRH4
T3 sequence (looked up): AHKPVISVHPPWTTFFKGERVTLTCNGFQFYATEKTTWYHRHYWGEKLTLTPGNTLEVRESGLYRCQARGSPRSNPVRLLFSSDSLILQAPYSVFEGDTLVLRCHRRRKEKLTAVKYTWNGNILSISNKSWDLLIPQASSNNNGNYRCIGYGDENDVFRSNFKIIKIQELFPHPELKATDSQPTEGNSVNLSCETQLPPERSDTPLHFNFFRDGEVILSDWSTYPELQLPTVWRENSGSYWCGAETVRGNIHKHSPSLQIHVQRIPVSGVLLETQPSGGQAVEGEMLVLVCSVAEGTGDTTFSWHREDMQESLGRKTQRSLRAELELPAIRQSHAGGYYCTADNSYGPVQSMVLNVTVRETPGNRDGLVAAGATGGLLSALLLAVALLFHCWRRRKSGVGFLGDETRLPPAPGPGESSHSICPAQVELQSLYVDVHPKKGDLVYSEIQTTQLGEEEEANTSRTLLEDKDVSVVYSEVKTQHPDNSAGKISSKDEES

T4: human FcRH1 (full-length, on SVT2 cells) (human, UniProt Q96LA6 17-429)
T4 construct: whole, on cells; also called SVT2-FcRH1
T4 sequence (looked up): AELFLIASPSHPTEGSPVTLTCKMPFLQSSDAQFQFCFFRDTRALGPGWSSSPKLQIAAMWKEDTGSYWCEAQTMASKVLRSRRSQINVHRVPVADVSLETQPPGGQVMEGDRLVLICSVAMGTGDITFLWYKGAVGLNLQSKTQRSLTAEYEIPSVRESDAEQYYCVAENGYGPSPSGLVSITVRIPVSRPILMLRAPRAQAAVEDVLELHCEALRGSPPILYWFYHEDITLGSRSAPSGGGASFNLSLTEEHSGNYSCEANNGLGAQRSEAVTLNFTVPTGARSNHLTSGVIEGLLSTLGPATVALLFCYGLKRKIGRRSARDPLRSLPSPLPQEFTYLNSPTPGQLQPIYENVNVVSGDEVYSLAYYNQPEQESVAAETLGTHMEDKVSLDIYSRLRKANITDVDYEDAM


Key:
[1] = target: T1, human FcRH5 protein fragment (soluble); assay: BIACORE, human IgG1, soluble human FcRH5
[2] = target: T1, human FcRH5 protein fragment (soluble); assay: SPR (BIACORE), IgG captured via anti-human IgG, FcRH5 protein fragment as analyte (100 and 500 nM)
[3] = target: T1, human FcRH5 protein fragment (soluble); assay: SPR, hIgG capture, screening
[4] = target: T1, human FcRH5 protein fragment (soluble); assay: SPR, hIgG capture, 1:1 model
Description: (§1) Briefly, a human IgG capture surface was generated on a Series S CM5 chip using amine coupling and the human IgG capture kit (GE Life Sciences, Piscataway, NJ). Test antibodies were then captured on flow cells 2, 3, or 4, with flow cell 1 used as a reference. An FcRH5 protein fragment was used as the analyte, with a flow rate of […]. Between injections the capture surface was regenerated by a 30-second injection of 3M magnesium chloride or 10 mM glycine, pH 1.5. Interactions were assessed at 25° C. in 10 mM HEPES pH7.4, 150 mM NaCl, and 0.05% Tween 20 (HBSP). Reference data from the reference flow cell and from injection of buffer alone were subtracted prior to kinetic analysis. Kinetic information was calculated by fitting data to a 1:1 binding model. Reference subtraction and data fitting were performed using BIAevaluation software (GE Life Sciences, Piscataway, NJ).
(§2) Kinetic characterization experiments were carried out (see Table 8). In these experiments, binding of soluble FcRH5 protein fragment to purified antibodies in human TDB antibody format was analyzed at six different non-zero concentrations (a 1:3 dilution series, one concentration injected twice as a replicate). Flow rate was set at 40 μl/min and association and dissociation monitored for 600 s.

[5] = target: T2, cynomolgus FcRH5 protein fragment …; assay: SPR, hIgG capture, 1:1 model
Description: as §1, §2

[6] = target: T1, human FcRH5 protein fragment (soluble); assay: BIACORE, TDB format
[7] = target: T3, human FcRH4 (full-length, on SVT2 cells); assay: FACS, SVT2 cells
Description: (§3) Human FcRH5, cyno FcRH5, human FcRH1, FcRH2, FcRH3, and FcRH4 transfected mouse SVT2 cells were used to test binding and cross-reactivity of FcRH5 TDBs. The method was carried out as follows. Cultured SVT2 cells were lifted using non-enzyme cell dissociation buffer (Sigma, #C5914). 1×10⁵ cells were suspended in 100 μL and incubated with FcRH5 TDBs at 3 μg/ml. […] Cells were washed twice with FACS buffer before flow cytometry analysis was carried out on a FACSCalibur.

[8] = target: T4, human FcRH1 (full-length, on SVT2 cells); assay: FACS, SVT2 cells
Description: as §3

| Fold improvement over hu1G7.v1 [1] | Kd [1] | Kd [2] | Kd [3] | Kd [4] | koff [4] | kon [4] | Kd [5] | koff [5] | kon [5] | Kd [6] | binding result [7] | binding result [8] | Binder |
| --- | --- | --- | --- | --- | --- | --- | --- | --- | --- | --- | --- | --- | --- |
| 17 fold | 0.8 nM | 2.5 nM | 2.5 nM | 2.5 nM | 0.002 s⁻¹ | 600000 M⁻¹ s⁻¹ | 7.2 nM | 0.001 s⁻¹ | 100000 M⁻¹ s⁻¹ | – | – | – | hu1G7.v85 (hIgG1) (antibody, V domains shown, bivalent hIgG1; also called hu1G7.v1.4.M64V) VH: EVQLVESGPGLVKPSETLSLTCTVSGFSLTRFGVHWVRQPPGKGLEWLGVIWRGGSTDYNAAFVSRLTISKDNSKNQVSLKLSSVTAADTAVYYCSNHYYGSSDYALDNWGQGTLVTVSS VL: DIQMTQSPSSLSASVGDRVTITCKASQDVRNLVVWFQQKPGKAPKLLIYSGSYRYSGVPSRFSGSGSGTDFTLTISSLQPEDFATYYCQQHYSPPYTFGQGTKVEIK |
| – | – | – | – | 2.6 nM | 0.002 s⁻¹ | 700000 M⁻¹ s⁻¹ | 7.7 nM | 0.001 s⁻¹ | 100000 M⁻¹ s⁻¹ | – | – | – | hu1G7.v1.4 (hIgG1) (antibody, V domains shown, hIgG1) VH: EVQLVESGPGLVKPSETLSLTCTVSGFSLTRFGVHWVRQPPGKGLEWLGVIWRGGSTDYNAAFMSRLTISKDNSKNQVSLKLSSVTAADTAVYYCSNHYYGSSDYALDNWGQGTLVTVSS VL: DIQMTQSPSSLSASVGDRVTITCKASQDVRNLVVWFQQKPGKAPKLLIYSGSYRYSGVPSRFSGSGSGTDFTLTISSLQPEDFATYYCQQHYSPPYTFGQGTKVEIK |
| – | – | – | – | – | – | – | – | – | – | 0.6 nM | no binding (tested: 3 µg/ml) | no binding (tested: 3 µg/ml) | hu1G7.v1.7/38E4.v1 TDB (bispecific antibody, V domains shown, knob-into-hole TDB; also called 1G7.v1.7 TDB) VH 1: EVQLVESGPGLVKPSETLSLTCTVSGFSTTRFGVHWVRQPPGKGLEWLGVIWRGGSTDYNAAFMSRLTISKDNSKNQVSLKLSSVTAADTAVYYCSNHYYGSSDYALDNWGQGTLVTVSS VL 1: DIQMTQSPSSLSASVGDRVTITCKASQDVRNLVVWFQQKPGKAPKLLIYSGYYRYTGVPSRFSGSGSGTDFTLTISSLQPEDFATYYCQQHYQPPYTFGQGTKVEIK VH 2: EVQLVQSGAEVKKPGASVKVSCKASGFTFTSYYIHWVRQAPGQGLEWIGWIYPENDNTKYNEKFKDRVTITADTSTSTAYLELSSLRSEDTAVYYCARDGYSRYYFDYWGQGTLVTVSS VL 2: DIVMTQSPDSLAVSLGERATINCKSSQSLLNSRTRKNYLAWYQQKPGQSPKLLIYWTSTRKSGVPDRFSGSGSGTDFTLTISSLQAEDVAVYYCKQSFILRTFGQGTKVEIK |
| – | – | – | – | – | – | – | – | – | – | 1.1 nM | no binding (tested: 3 µg/ml) | no binding (tested: 3 µg/ml) | hu1G7.v1.5/38E4.v1 TDB (bispecific antibody, V domains shown, knob-into-hole TDB; also called 1G7.v1.5 TDB) VH 1: EVQLVESGPGLVKPSETLSLTCTVSGFSLTRFGVHWVRQPPGKGLEWLGVIWRGGSTDYNAAFMSRLTISKDNSKNQVSLKLSSVTAADTAVYYCSNHYYGSSDYALDNWGQGTLVTVSS VL 1: DIQMTQSPSSLSASVGDRVTITCKASQDVSNIVVWFQQKPGKSPKLLIYSGYYRYTGVPSRFSGSGSGTDFTLTISSLQPEDFATYYCQQQFQPPYTFGQGTKVEIK VH 2: EVQLVQSGAEVKKPGASVKVSCKASGFTFTSYYIHWVRQAPGQGLEWIGWIYPENDNTKYNEKFKDRVTITADTSTSTAYLELSSLRSEDTAVYYCARDGYSRYYFDYWGQGTLVTVSS VL 2: DIVMTQSPDSLAVSLGERATINCKSSQSLLNSRTRKNYLAWYQQKPGQSPKLLIYWTSTRKSGVPDRFSGSGSGTDFTLTISSLQAEDVAVYYCKQSFILRTFGQGTKVEIK |
